# Laboratory results taken from article PMC3302947 (Biochemistry, 2012).
# B1: MBP-Vif(101–165) (domain or fragment)
# chain: ELADQLIHLYYFDCFSDSAIRKALLGHIVSPRCEYQAGHNKVGSLQYLALAALITPKKIKPPLPS
# B2: MBP-Vif(101–176) (domain or fragment)
# chain: not shown
# B3: MBP-Vif(101–192) (domain or fragment)
# chain: ELADQLIHLYYFDCFSDSAIRKALLGHIVSPRCEYQAGHNKVGSLQYLALAALITPKKIKPPLPSVTKLTEDRWNKPQKTKGHRGSHTMNGH
# B4: MBP-Vif(101–160) (domain or fragment)
# chain: ELADQLIHLYYFDCFSDSAIRKALLGHIVSPRCEYQAGHNKVGSLQYLALAALITPKKIK
# B5: MBP-Vif(101–172) (domain or fragment)
# chain: ELADQLIHLYYFDCFSDSAIRKALLGHIVSPRCEYQAGHNKVGSLQYLALAALITPKKIKPPLPSVTKLTED
# B6: MBP-Vif(154–176) (domain or fragment)
# chain: ITPKKIKPPLPSVTKLTEDRWNK
# B7: MBP-Vif(101–176)_(PPGP) (domain or fragment)
# chain: not shown
# B8: MBP-Vif(101–176)_(PPPP) (domain or fragment)
# chain: not shown
# B9: MBP-Vif(101–176) V166S (domain or fragment)
# chain: not shown
# B10: MBP-Vif(101–176)_(AALA) (domain or fragment)
# chain: ELADQLIHLYYFDCFSDSAIRKALLGHIVSPRCEYQAGHNKVGSLQYLALAALITPKKIKAALASVTKLTEDRWNK
# Biological target: the molecule itself
# Experiment: AUC
row,Protein,percent monomer at 10 μM
1,B1,< 30%
2,B2,< 30%
3,B3,< 30%
4,B4,< 30%
5,B5,< 30%

# Biological target: the molecule itself
# Experiment: AUC
# Remark: another data set of the same source
row,Protein,stoichiometry N
1,B6,2

# Biological target: the molecule itself
# Experiment: AUC
# Remark: another data set of the same source
row,Protein,binding result
1,B7,binds
2,B8,binds
3,B9,binds
4,B10,binds
